Assay results as given in the supplement of paper PMC10126150.
± gives the standard deviation of the averaged measurements.

System: ATP
Assay: switch fluorescence ratio, 500 uM ATP over buffer (Cy3 cluster intensity, sum of 5 cycles each) (fold (ratio)); higher = stronger signal-on switching upon ATP binding; sequences stand for … in TCGTCGGCAGCGTCAGATGTGTATAAGAGACAGTTTTTTTTTTTTTTTTTTTTTTTTT…TC
Conditions: aptamer strand: ATP DNA aptamer (quencher-CACCTGGGGGAGTATTGCGGAGGAAGG + anchor), 100 nM annealed; ATP concentration: 500 uM
How it was run: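 Five buffer/ATP imaging cycles were run on Cy3-labelled switching-strand clusters on a modified Illumina MiSeq flow-cell, with NaOH stripping and re-annealing between cycles. In each cycle, clusters annealed to 100 nM quencher-labelled ATP aptamer were imaged in selection buffer, then after 15 min with 500 uM ATP at 22 °C. Per cluster, the fluorescence ratio is summed target-cycle over summed buffer-cycle Cy3 intensity, averaged per switch-domain sequence. Only clusters within 100-1000 RFU were kept.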
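Also: ATP exposure 15 min at 22 °C before imaging.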

Sequence	switch fluorescence ratio
GGGGTCAGAT	0.986 ± 0.051
GTGATGACTT	1.001 ± 0.0061
TGGGGGGCCA	1 ± 0.027
CAAGAGTGGG	1.01 ± 0.032
TTTTAAAGCA	1.01 ± 0.03
GTCGGTAGGT	1 ± 0.032
CTGGGGGGCG	0.984 ± 0.066
TTGCCGTTCA	1.02 ± 0.013
TGACTAGGGA	0.992 ± 0.021
CATCGTGGGT	0.975 ± 0.027
CTGGGGGGCA	0.997 ± 0.017
CAAAGAAAGA	0.991 ± 0.032
CGCATTTAGA	1.04 ± 0.047
TTTGTTGACC	1.02 ± 0.013
GCTGACTTGT	0.977 ± 0.016
GCTGGGACAG	0.999 ± 0.032
ATGTCCATTA	0.994 ± 0.01
CGGTGTAGTC	1.012 ± 0.01
GTTGCTAGTA	1 ± 0.011
CGATGGGCAG	1.04 ± 0.061
TTTATAGGGT	1 ± 0.032
CGTTGGCATA	1.149 ± 0.0065
AAGTTGGCAT	0.977 ± 0.04
GGTTTGCGGC	0.994 ± 0.036
ATGTGCAGGC	0.969 ± 0.026

Sequence	switch fluorescence ratio
TCGATCAACG	0.9909 ± 0.0013
TTACCATCGG	1.01 ± 0.024
AGGTTGGAGG	0.976 ± 0.018
TCGGGGGTTG	0.996 ± 0.056
AATGGTCATG	0.993 ± 0.075
AAATCGGAAA	0.98 ± 0.028
GGGGAGAGGG	0.984 ± 0.029
TGACATGGGG	0.9827 ± 0.0051
GCGTTGGGGA	1.02 ± 0.015
ACGTTGAGGG	1.06 ± 0.049
GCATGTCGGG	1.03 ± 0.015
CGGTGTGGGT	1.03 ± 0.0023
TTTTTACGCA	1.154 ± 0.0098
ATGGCGGGGA	0.984 ± 0.052
TTTCCATTGG	1.03 ± 0.015
TCGTGTTCGG	0.971 ± 0.029
AAGCTGTAGC	1.03 ± 0.048
AATGGTGTAA	0.99259 ± 0.00066
ATTGGAAGTT	0.997 ± 0.014
AAAACGGGAA	1.02 ± 0.018
GGATCCATAC	1.01 ± 0.014
AAACTCGCGC	1.07 ± 0.012
TTTCATGTCG	0.986 ± 0.1
AGTGTTTTTT	1.01 ± 0.046
TGAGTAGGGC	0.948 ± 0.041

Sequence	switch fluorescence ratio
CGAGTTGGAC	1.0038 ± 0.00091
AATTCAGTGT	1.01 ± 0.025
CGCTGCTGGT	0.998 ± 0.031
CCTTTAAAAT	1.4 ± 0.41
AGGTGACTCG	1.04 ± 0.017
CTCATTGTTG	0.992 ± 0.014
TTCGGAAAGA	1.013 ± 0.0082
ACTATGATAT	1.018 ± 0.0073
ACTAGGTATG	1.01 ± 0.032
AGGTAATGTT	1.01 ± 0.021
AGTATTGGGG	0.999 ± 0.025
TAGTAGGAGG	0.9721 ± 0.0061
GTTTGTTTAC	0.987 ± 0.014
GTGATCCCCG	1.006 ± 0.0041
CCTGAGAGAG	1.034 ± 0.0052
TTGGACATGG	0.963 ± 0.012
GTTGATTTTT	0.982 ± 0.018
TTTTGCCATA	1.02 ± 0.042
CGGGATTCTG	1 ± 0.031
GGGTCAGTGT	0.952 ± 0.018
TTGTACGGGG	0.985 ± 0.03
ATATAATCAA	0.98075 ± 0.00037
GGACTCCTAG	0.995 ± 0.028
AGAGTTACCG	1.04 ± 0.017
TGTATGC	0.958 ± 0.051

Sequence	switch fluorescence ratio
TGACAAGGGG	1.05 ± 0.044
CGCAAAGGGC	2.12 ± 1.4
CCGGGGTGGC	1.16 ± 0.11
GGTTTAGGAC	0.971 ± 0.016
CATACGTGCG	1 ± 0.042
TTAGAACTGA	1.02 ± 0.023
AAAGGGGTCT	1.01 ± 0.031
CTTATAGTGG	1.06 ± 0.058
CCACTGGTGT	3.92 ± 0.56
ATGTATTATG	0.956 ± 0.026
GGAGAAGTCC	1.03 ± 0.093
GGGAGTATCT	0.9998 ± 0.0028
TCAAGTTCTT	1.03 ± 0.031
GCGGAGGTTT	0.973 ± 0.034
AAACTGTTTG	0.996 ± 0.024
CGGTCGTAAC	1.04 ± 0.018
GAGGGTAAAT	1.02 ± 0.023
AGAATTTGCG	0.974 ± 0.018
TTGATGACGT	0.9932 ± 0.0075
TTTGCCTCGT	1.04 ± 0.025
TAACAGCTGT	1.04 ± 0.041
GGGTACGCAG	1.01 ± 0.029
GGGAATGGAG	0.976 ± 0.029
AGCATGGGGG	1.01 ± 0.023
ACACTTTTTT	1 ± 0.055
